In EP3370777B1:

Molecular target: His-tagged eukaryotic Elongation Factor 2 (eEF2) expressed in S. cerevisiae
Test: cell-based or functional assay

## recombinant Exotoxin A (SEQ ID NO: 4), expressed in E. coli NiCo21(DE3) as His-tagged SUMO fusion, SUMO-tag removed (enzyme)
  ADP-ribosylation activity EC50 [µg/µl] (Example 1, soluble fraction): 0.6 µg/µL
  ADP-ribosylation activity EC50 [µg/µl] (Example 2, method of the invention): 0.52 µg/µL
